Measured values reported in patent US20120040474A1 (published 2012).

T1: denatured glycoprotein RNase B, P61823
T1 chain: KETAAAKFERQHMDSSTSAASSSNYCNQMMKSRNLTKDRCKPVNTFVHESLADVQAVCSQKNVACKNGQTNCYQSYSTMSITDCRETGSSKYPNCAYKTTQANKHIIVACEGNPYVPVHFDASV

T2: denatured glycoprotein RNase B (UniProt P61823 27-150, a single N-glycosylation site predominantly occupied by high mannose oligosaccharides; protein denatured)
T2 construct: Recognition by the PNGase F mutants and by Con A goes through the N-linked glycan on the protein; also called denatured RNase B; dRNAse B
T2 sequence (looked up): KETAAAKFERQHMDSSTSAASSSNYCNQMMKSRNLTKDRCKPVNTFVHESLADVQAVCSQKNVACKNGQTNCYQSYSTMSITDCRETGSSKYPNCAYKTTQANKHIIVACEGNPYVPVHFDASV

B1: PNGase F, Peptide-N4-(acetyl-β-D-glucosaminyl)-asparagine amidase, wild type (D60) (protein)
chain: APADNTVNIKTFDKVKNAFGDGLSQSAEGTFTFPADVTTVKTIKMFIKNECPNKTCDEWDRYANVYVKNKTTGEWYEIGRFITPYWVGTEKLPRGLEIDVTDFKSLLSGNTELKIYTETWLAKGREYSVDFDIVYGTPDYKYSAVVPVIQYNKSSIDGVPYGKAHTLGLKKNIQLPTNTEKAYLRTTISGWGHAKPYDAGSRGCAEWCFRTHTIAINNANTFQHQLGALGCSANPINNQSPGNWAPDRAGWCPGMAVPTRIDVLNNSLTGSTFSYEYKFQSWTNNGTNGDAFYAISSFVIAKSNTPISAPVVTN
B2: PNGase F D60A mutant (enzyme)
chain: APADNTVNIKTFDKVKNAFGDGLSQSAEGTFTFPADVTTVKTIKMFIKNECPNKTCDEWARYANVYVKNKTTGEWYEIGRFITPYWVGTEKLPRGLEIDVTDFKSLLSGNTELKIYTETWLAKGREYSVDFDIVYGTPDYKYSAVVPVIQYNKSSIDGVPYGKAHTLGLKKNIQLPTNTEKAYLRTTISGWGHAKPYDAGSRGCAEWCFRTHTIAINNANTFQHQLGALGCSANPINNQSPGNWAPDRAGWCPGMAVPTRIDVLNNSLTGSTFSYEYKFQSWTNNGTNGDAFYAISSFVIAKSNTPISAPVVTN
B3: PNGase F D60A/E206K mutant (enzyme)
chain: APADNTVNIKTFDKVKNAFGDGLSQSAEGTFTFPADVTTVKTIKMFIKNECPNKTCDEWARYANVYVKNKTTGEWYEIGRFITPYWVGTEKLPRGLEIDVTDFKSLLSGNTELKIYTETWLAKGREYSVDFDIVYGTPDYKYSAVVPVIQYNKSSIDGVPYGKAHTLGLKKNIQLPTNTEKAYLRTTISGWGHAKPYDAGSRGCAKWCFRTHTIAINNANTFQHQLGALGCSANPINNQSPGNWAPDRAGWCPGMAVPTRIDVLNNSLTGSTFSYEYKFQSWTNNGTNGDAFYAISSFVIAKSNTPISAPVVTN
B4: PNGase F D60N mutant (enzyme)
chain: APADNTVNIKTFDKVKNAFGDGLSQSAEGTFTFPADVTTVKTIKMFIKNECPNKTCDEWNRYANVYVKNKTTGEWYEIGRFITPYWVGTEKLPRGLEIDVTDFKSLLSGNTELKIYTETWLAKGREYSVDFDIVYGTPDYKYSAVVPVIQYNKSSIDGVPYGKAHTLGLKKNIQLPTNTEKAYLRTTISGWGHAKPYDAGSRGCAEWCFRTHTIAINNANTFQHQLGALGCSANPINNQSPGNWAPDRAGWCPGMAVPTRIDVLNNSLTGSTFSYEYKFQSWTNNGTNGDAFYAISSFVIAKSNTPISAPVVTN
B5: PNGase F E206A mutant (enzyme)
chain: APADNTVNIKTFDKVKNAFGDGLSQSAEGTFTFPADVTTVKTIKMFIKNECPNKTCDEWDRYANVYVKNKTTGEWYEIGRFITPYWVGTEKLPRGLEIDVTDFKSLLSGNTELKIYTETWLAKGREYSVDFDIVYGTPDYKYSAVVPVIQYNKSSIDGVPYGKAHTLGLKKNIQLPTNTEKAYLRTTISGWGHAKPYDAGSRGCAAWCFRTHTIAINNANTFQHQLGALGCSANPINNQSPGNWAPDRAGWCPGMAVPTRIDVLNNSLTGSTFSYEYKFQSWTNNGTNGDAFYAISSFVIAKSNTPISAPVVTN
B6: PNGase F D60A/R125A mutant (enzyme)
chain: APADNTVNIKTFDKVKNAFGDGLSQSAEGTFTFPADVTTVKTIKMFIKNECPNKTCDEWARYANVYVKNKTTGEWYEIGRFITPYWVGTEKLPRGLEIDVTDFKSLLSGNTELKIYTETWLAKGAEYSVDFDIVYGTPDYKYSAVVPVIQYNKSSIDGVPYGKAHTLGLKKNIQLPTNTEKAYLRTTISGWGHAKPYDAGSRGCAEWCFRTHTIAINNANTFQHQLGALGCSANPINNQSPGNWAPDRAGWCPGMAVPTRIDVLNNSLTGSTFSYEYKFQSWTNNGTNGDAFYAISSFVIAKSNTPISAPVVTN
B7: PNGase F D60A/E206Q mutant (enzyme)
chain: APADNTVNIKTFDKVKNAFGDGLSQSAEGTFTFPADVTTVKTIKMFIKNECPNKTCDEWARYANVYVKNKTTGEWYEIGRFITPYWVGTEKLPRGLEIDVTDFKSLLSGNTELKIYTETWLAKGREYSVDFDIVYGTPDYKYSAVVPVIQYNKSSIDGVPYGKAHTLGLKKNIQLPTNTEKAYLRTTISGWGHAKPYDAGSRGCAQWCFRTHTIAINNANTFQHQLGALGCSANPINNQSPGNWAPDRAGWCPGMAVPTRIDVLNNSLTGSTFSYEYKFQSWTNNGTNGDAFYAISSFVIAKSNTPISAPVVTN
B8: PNGase F D60A/D57A mutant (enzyme)
chain: APADNTVNIKTFDKVKNAFGDGLSQSAEGTFTFPADVTTVKTIKMFIKNECPNKTCAEWARYANVYVKNKTTGEWYEIGRFITPYWVGTEKLPRGLEIDVTDFKSLLSGNTELKIYTETWLAKGREYSVDFDIVYGTPDYKYSAVVPVIQYNKSSIDGVPYGKAHTLGLKKNIQLPTNTEKAYLRTTISGWGHAKPYDAGSRGCAEWCFRTHTIAINNANTFQHQLGALGCSANPINNQSPGNWAPDRAGWCPGMAVPTRIDVLNNSLTGSTFSYEYKFQSWTNNGTNGDAFYAISSFVIAKSNTPISAPVVTN
B9: PNGase F D60A/E206A mutant (enzyme)
chain: APADNTVNIKTFDKVKNAFGDGLSQSAEGTFTFPADVTTVKTIKMFIKNECPNKTCDEWARYANVYVKNKTTGEWYEIGRFITPYWVGTEKLPRGLEIDVTDFKSLLSGNTELKIYTETWLAKGREYSVDFDIVYGTPDYKYSAVVPVIQYNKSSIDGVPYGKAHTLGLKKNIQLPTNTEKAYLRTTISGWGHAKPYDAGSRGCAAWCFRTHTIAINNANTFQHQLGALGCSANPINNQSPGNWAPDRAGWCPGMAVPTRIDVLNNSLTGSTFSYEYKFQSWTNNGTNGDAFYAISSFVIAKSNTPISAPVVTN
B10: PNGase F D60A/E206R mutant (enzyme)
chain: APADNTVNIKTFDKVKNAFGDGLSQSAEGTFTFPADVTTVKTIKMFIKNECPNKTCDEWARYANVYVKNKTTGEWYEIGRFITPYWVGTEKLPRGLEIDVTDFKSLLSGNTELKIYTETWLAKGREYSVDFDIVYGTPDYKYSAVVPVIQYNKSSIDGVPYGKAHTLGLKKNIQLPTNTEKAYLRTTISGWGHAKPYDAGSRGCARWCFRTHTIAINNANTFQHQLGALGCSANPINNQSPGNWAPDRAGWCPGMAVPTRIDVLNNSLTGSTFSYEYKFQSWTNNGTNGDAFYAISSFVIAKSNTPISAPVVTN

Biological target: T1, denatured glycoprotein RNase B, P61823
Test: enzyme Km of the wild type, used as reference for the SPR Kd values

| Molecule | Km (printed in the Kd column, footnote a) |
| --- | --- |
| B1 | 6.4 mM |

biological target: T2, denatured glycoprotein RNase B; test: SPR Kd against wild type Km

| Molecule | Relative Enhancement (relative to wild type) |
| --- | --- |
| B2 | 580 fold |
| B3 | 360 fold |
| B4 | 290 fold |
| B5 | 580 fold |
| B6 | 360 fold |
| B7 | 360 fold |
| B8 | 910 fold |
| B9 | 320 fold |
| B10 | 240 fold |

biological target: denatured glycoprotein RNase B (UniProt P61823); test: reference value of Table 7

| Molecule | Relative Enhancement (relative to wild type) |
| --- | --- |
| PNGase F, Peptide-N4-(acetyl-β-D-glucosaminyl)-asparagine amidase, wild type (D60) (from UniProt P21163 41-354) (enzyme) | 1 fold |
